Test results: the Human Domainome abundance scans (Beltran et al. 2025)
± gives the uncertainty stated by the source.

B1: CD2-associated protein, residues 109 to 169; numbered along this chain, Q9Y5K6 (parent)
chain: KKRQCKVLFEYIPQNEDELELKVGDIIDINEEVEEGWWSGTLNNKLGLFPSNFVKELEVTD

Variants of: B1
Assay: abundance fitness (aPCA) (normalised: wild type 0, dead -1); higher = more abundant; growth selection in yeast, the domain comes from the species named
Conditions: Homo sapiens

Abundance fitness, by site and new letter:
G24: W -0.764 ± 0.27, D -0.252 ± 0.25, R -0.735 ± 0.25, Y -0.56 ± 0.4, P -0.838 ± 0.46, S -0.611 ± 0.17, F -0.57 ± 0.32, A -0.783 ± 0.28, I -0.226 ± 0.22, L -0.781 ± 0.22, T -0.559 ± 0.27
E18: Q -0.395 ± 0.23, K -0.411 ± 0.41, A -0.783 ± 0.27, G -0.439 ± 0.21, P -0.986 ± 0.34, D -0.738 ± 0.49, Y -0.582 ± 0.22, T -0.838 ± 0.29, S -0.808 ± 0.2, V -0.989 ± 0.44, L -0.684 ± 0.19, M -0.503 ± 0.2, R -0.792 ± 0.22
V23: M -0.34 ± 0.17, L -0.369 ± 0.2, K 0.117 ± 0.19, T -0.144 ± 0.18, G -0.458 ± 0.2, S -0.414 ± 0.21, I -0.143 ± 0.24, F -0.687 ± 0.33, P -0.08 ± 0.28, H -0.677 ± 0.38, R -0.092 ± 0.14, A -0.595 ± 0.44, Q -0.071 ± 0.17
L19: E -0.641 ± 0.34, H -0.73 ± 0.36, S -0.826 ± 0.45, A -0.906 ± 0.43, R -0.68 ± 0.17, M -0.319 ± 0.29, W -1.18 ± 0.42, G -0.508 ± 0.21, I -0.063 ± 0.33, K -0.727 ± 0.43
E32: C -0.274 ± 0.3, T -0.094 ± 0.18, M 0.178 ± 0.19, G -0.188 ± 0.17, I -0.28 ± 0.41, A -0.38 ± 0.24, R -0.407 ± 0.25, S -0.091 ± 0.16, K -0.188 ± 0.2, V -0.155 ± 0.3, W -0.374 ± 0.31, L -0.689 ± 0.42
I12: Q -0.267 ± 0.27, V -0.218 ± 0.18, S -0.138 ± 0.13, Y 0.065 ± 0.23, R -0.253 ± 0.11, T 0.106 ± 0.14, W -0.311 ± 0.15
I27: S -0.641 ± 0.2, A -0.608 ± 0.18, Y -0.684 ± 0.49, H -0.614 ± 0.42, N -0.542 ± 0.45, C -0.692 ± 0.32, G -0.939 ± 0.44, V 0.03 ± 0.32, P -0.61 ± 0.33, E -0.951 ± 0.43, K -1.03 ± 0.42, Q -0.541 ± 0.19, M -0.716 ± 0.24, T -0.902 ± 0.27, W -0.913 ± 0.24, L -0.436 ± 0.11
E31: N -0.016 ± 0.22, P -0.855 ± 0.46, A -0.052 ± 0.1, G -0.187 ± 0.16, L -0.367 ± 0.12, D 0.002 ± 0.23, M -0.26 ± 0.17, T -0.087 ± 0.12, V -0.354 ± 0.1, W -0.755 ± 0.2, K 0.109 ± 0.12, R 0.039 ± 0.099, I -0.116 ± 0.44, S -0.33 ± 0.13, F -0.584 ± 0.49, Q -0.23 ± 0.15, Y -0.122 ± 0.25
D25: A -0.339 ± 0.15, L -0.856 ± 0.32, G -0.835 ± 0.24, K -0.106 ± 0.3, V -0.733 ± 0.2, T -0.495 ± 0.25, Q -0.39 ± 0.34, C -0.649 ± 0.27, P -0.401 ± 0.19, E -0.066 ± 0.19, M -0.771 ± 0.49, R -0.484 ± 0.22
E16: Q -0.007 ± 0.27, V -0.182 ± 0.1, K -0.434 ± 0.24, R 0.017 ± 0.14, D -0.203 ± 0.27, S 0.053 ± 0.14, M 0.147 ± 0.24, W -0.317 ± 0.44, P -0.191 ± 0.16, I -0.552 ± 0.48, G -0.303 ± 0.15, L -0.403 ± 0.15
D28: V -0.314 ± 0.082, A -0.536 ± 0.19, F -0.335 ± 0.19, R -0.515 ± 0.12, H -0.136 ± 0.25, S -0.368 ± 0.1, G -0.581 ± 0.13, C -0.264 ± 0.25, L -0.4 ± 0.12, T -0.209 ± 0.14, W -0.268 ± 0.15, Y -0.271 ± 0.16, E 0.131 ± 0.11
N30: R -0.171 ± 0.11, D -0.123 ± 0.29, A -0.305 ± 0.47, C -0.256 ± 0.42, E 0.302 ± 0.24, Q -0.043 ± 0.19, M -0.151 ± 0.18, S -0.11 ± 0.1, P -0.438 ± 0.32, V 0.101 ± 0.15
P13: S -0.444 ± 0.21, L -0.903 ± 0.34, G -0.547 ± 0.13, K -0.233 ± 0.25, W -0.881 ± 0.29, R 0.026 ± 0.094, E -0.747 ± 0.39, M -0.812 ± 0.38
V33: M 0.085 ± 0.27, Y -0.349 ± 0.4, G -0.483 ± 0.43, S -0.186 ± 0.16, H -0.404 ± 0.34, F -0.242 ± 0.23, T -0.452 ± 0.24, E -0.192 ± 0.2, Q -0.55 ± 0.29, I 0.129 ± 0.23, A -0.132 ± 0.23, R 0.108 ± 0.17, K -0.262 ± 0.15
